Measurements from FireProtDB (doi:10.1021/bi050502v).

Settings: Locusta migratoria, pH 7.4, CD, Na2HPO4 KH2PO4 10 mM 2 mM, NaCl 127 mM, reversible: yes, whole UniProt chain shown

B1: Apolipophorin-3b wild type, P10762 (protein)
chain: MNTLLAVLMLAVAAQARPDAAGHVNIAEAVQQLNHTIVNAAHELHETLGLPTPDEALNLLTEQANAFKTKIAEVTTSLKQEAEKHQGSVAEQLNRFARNLNNSIHDAATSAQPADQLNSLQSALTNVGHQWQTSQPRPSVAQEAWAPVQSALQEAAEKTKEAAANLQNSIQSAVQKPAN
Q: With B1 as the protein, how does the “denaturant midpoint (higher = more stable)” value (25 °C, GdnHCl) read?
A: 0.51 M

Q: And the unfolding free energy (25 °C, GdnHCl)?
A: 2.05 kcal/mol

Q: What about the Tm (Thermal) of the same protein?
A: 53 °C
